Assay results from PMC6265330, “Compositional adaptability in NPM1-SURF6 scaffolding networks enabled by dynamic switching of phase separation mechanisms” (Nature Communications, 2018).

Molecular target: T1, S6N, N-terminal fragment of Surfeit locus protein 6 (SURF6), residues 1-182 (human, UniProt O75683 1-182)
T1 construct: Surfeit locus protein 6 (SURF6), human, 361 amino acids; N-terminal construct of residues 1-182 with R-motifs R1 and R2; In imaging experiments 10% was labelled with Alexa Fluor 647 at Cys19; also called SURF6 N-terminal construct; source: E. coli BL21 Rosetta 2 (DE3), purified from inclusion bodies (Ni-NTA under denaturing conditions, TEV cleavage, C4 HPLC)
T1 sequence (looked up): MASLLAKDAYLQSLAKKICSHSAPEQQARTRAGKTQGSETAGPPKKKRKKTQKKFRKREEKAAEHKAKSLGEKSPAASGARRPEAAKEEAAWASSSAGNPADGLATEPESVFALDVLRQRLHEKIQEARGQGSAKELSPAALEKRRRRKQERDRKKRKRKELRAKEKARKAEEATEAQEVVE
Test: not stated; method and conditions not shown in the main text (Supplementary Fig. 13)
Conditions: both partners purified

B1: IDR of NPM1 (domain or fragment, UniProt P06748 120-240, looked up)
chain: EEDAESEDEEEEDVKLLSISGKRSAPGGGSKVPQKKVKLAADEDDDDDDEEDDDEDDDDDDFDDEEAEEKAPVKKSIRDTPAKNAQKSNQNGKDSKPSSTPRSKGQESFKKQEKTPKTPKG
notes: Nucleophosmin (NPM1), central intrinsically disordered region; also called NPM1-IDR
Kd: 350 nM
